First the molecules themselves.
T1: His-labeled cynomolgus monkey CD3E (purchased from Acro Biosystems) (cynomolgus monkey, UniProt Q95LI5 22-117)
T1 construct: also called Cynomolgus monkey CD3E antigen; not shown: His label
T1 sequence (looked up): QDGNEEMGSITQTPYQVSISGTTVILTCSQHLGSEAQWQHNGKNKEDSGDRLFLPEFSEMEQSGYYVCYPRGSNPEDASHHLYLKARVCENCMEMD

B1: humanized antibody AB614 (antibody, human IgG4 S228P, kappa, V domains shown)
VH: EVQLLESGGGLVQPGGSLKLSCAASGFTFNTYAMNWVRQAPGKGLEWVGRIRSKINNYATYYADSVKDRFTISRDDSKNTAYLQMNNLKTEDTAMYYCVRHDNFYGSTYSWFADWGQGTLVTVSS
VL: ELVVTQEPSLTVSPGGTVTLTCRSSTGVVTTSNYANWVQEKPDHLFTGLIGATNYRAPGTPARFSGSLLGGKAALTLSGVQPEDEAIYFCVLWYSNHWVFGGGTKLTVLR
notes: Humanized from AP591 CDRs
B2: murine monoclonal antibody AP191 (antibody, mouse IgG1, V domains shown)
VH: QVQLQQSGPELVKPGASMKMSCKASGYTFTSYYIHWVKQRPGQGLEWIGWIYPGDGSTKFNEKFRGKTSLTADKSSNTAYMFLSSLTSEDSAIYFCARDGYSLYYFEFWGHGTTLTVSS
VL: DIVMSQSPSSLAVSAGETVTMSCKSSQSLLNSRTRKTYLAWYQQKPGQSPKLLIYWASTRDSGVPDRFTGSGSGTDFTLTISSVQAEDLAVYYCVQSYTLRTFGGGTKLEIK
B3: murine monoclonal antibody AP831 (antibody, mouse IgG1, V domains shown)
VH: QVQLQQSGPELVKPGTSVKMSCKASGYTFTNNYIHWVKEKPGEGLEWIGWIYPGDGTTKYNEKFKGKTTLASDKSSNTVYMFLSSLTSEDSAIYFCTRNNNYYFDYWGQGTTLTVSS
VL: B2 VL with T18K, S22N, L30F, T37N, D61E, V91L, V95K, Y98F, T99I
B4: murine monoclonal antibody AP591 (antibody, mouse IgG1, V domains shown)
VH: B1 VH with L5V, G15K, K67R, K78Q, N79S, T80M, A81L, N86S, S125A
VL: AVVTQESALTTSPGETVTLTCRSSTGVVTTSNYANWVQEKPDHLFTGLIGATNYRVPGVPARFSGSLIGDKAALTITGAQTEDEAIYFCVLWYSNHWVFGGGTKLTVL
B5: humanized antibody AB611 (antibody, human IgG4 S228P, kappa, V domains shown)
VH: EVQLVQSGAEVKKPGSSVKVSCKASGYTFTNNYIHWVKEKPGQGLEWIGWIYPGDGTTKYNEKFKGKTTLASDKSTNTAYMELSSLRSEDTAIYFCTRNNNYYFDYWGQGTTVTVSS
VL: DIVMTQSPDSLAVSLGERATMNCKSSQSLFNSRTRKNYLAWYQQKPGESPKLLIYWASTRESGVPDRFSGSGSGTDFTLTISSLQAEDVAVYYCKQSFILRTFGGGTKVEIKR
notes: Humanized from AP831 CDRs
B6: humanized antibody AB616 (antibody, V domains shown)
VH: B1 VH with N30D
VL: ELVVTQEPSLTVSPGGTVTLTCRSSTGVVTTSNYANWVQEKPDHLFTGLIGATNYRAPGTPARFSGSLLGGKAALTLSGVQPEDEAIYFCVLWYSNHWVFGGGTKLTVL
B7: humanized antibody AB617 (antibody, V domains shown)
VH: B1 VH with T31D
VL: B6 VL
B8: humanized antibody AB620 (antibody, V domains shown)
VH: B1 VH with N30D
VL: B6 VL with N54D
B9: humanized antibody AB615 (antibody, V domains shown)
VH: B1 VH with T28D
VL: B6 VL
B10: humanized antibody AB627 (antibody, V domains shown)
VH: B1 VH with F112H
VL: B6 VL
B11: humanized antibody AB623 (antibody, V domains shown)
VH: B1 VH with F104H
VL: B6 VL
B12: humanized antibody AB621 (antibody, V domains shown)
VH: B1 VH
VL: B6 VL with Y34H
B13: humanized antibody AB625 (antibody, V domains shown)
VH: B1 VH with Y109H
VL: B6 VL
B14: humanized antibody AB622 (antibody, V domains shown)
VH: B1 VH
VL: B6 VL with Y55H
B15: humanized antibody AB618 (antibody, V domains shown)
VH: B1 VH
VL: B6 VL with A52D
B16: humanized antibody AB626 (antibody, V domains shown)
VH: B1 VH with W111H
VL: B6 VL
B17: humanized antibody AB619 (antibody, V domains shown)
VH: B1 VH
VL: B6 VL with N54D
B18: humanized antibody AB624 (antibody, V domains shown)
VH: B1 VH with Y105H
VL: B6 VL

Positions count from the first letter of the chain named.

T3 sequence (P07766 23-126 limits assumed): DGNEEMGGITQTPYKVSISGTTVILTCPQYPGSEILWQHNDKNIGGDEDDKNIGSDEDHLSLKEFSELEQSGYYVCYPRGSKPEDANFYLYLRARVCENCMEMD

The target of one assay is T2, human CD3 on human T cells (human, UniProt P07766 23-207). In words: cell-based or functional assay.
T2 sequence (P07766 23-207): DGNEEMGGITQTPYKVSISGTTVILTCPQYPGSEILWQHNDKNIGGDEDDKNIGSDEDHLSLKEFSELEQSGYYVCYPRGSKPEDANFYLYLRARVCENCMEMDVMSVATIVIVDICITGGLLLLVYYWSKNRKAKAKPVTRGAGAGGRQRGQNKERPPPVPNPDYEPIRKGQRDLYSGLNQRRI
On to B1, for which the “EC50 of activating T cells (luciferase of NFAT RE reporter Jurkat T cells)” value came to 0.142 nM.

A further assay has as its target T3, human CD3E (purchased from Acro Biosystems) (human, UniProt P07766 23-126).
T3 construct: also called human CD3 antigen; human CD3E molecules
In words: ELISA, plate coated with human CD3E. On the procedure: A microtiter plate was coated with 100 μL of 0.1 μg/mL human CD3E (purchased from Acro Biosystems) overnight at room temperature. The coating solution was discarded, and the wells were blocked with skimmed milk dissolved in phosphate buffered saline (PBS) for 0.5 hours and washed with PBS containing 0.05% Tween-20 (PBST). Then the purified murine antibodies AP191, AP591 and AP831 against human CD3 were added with 50 μL per well and incubated for 1 h at room temperature. The wells were washed with 0.05% PBST. Then 50 μL of HRP-labeled goat anti-mouse IgG polyclonal antibody (purchased from Jackson Laboratory) was added per well as the detected antibody and incubated for 1 h at 37° C. The wells were washed three times with 0.05% PBST, added with TMB (100 μL/well) and developed at room temperature for 5 min. 0.2 M H₂SO₄ was added to terminate the reaction, 50 μL/well. Absorption values were read by a microplate reader at double wavelengths 450 nm/620 nm. Plotting was performed by software GraphPad Prism 6 with OD 450 nm/620 nm as the Y-axis and an antibody concentration as the X-axis.
B2 returned a 50% effective concentration (EC50) of 0.0149 nM.
Still for that read-out and setting: to B3 belongs 0.0404 nM; to B4, 0.0283 nM.

For a further assay, the target named is T2, human CD3 on human T cells. In words: flow cytometry on human primary T cells.
Molecule B5 displayed an EC50 of 0.174 nM.
On the same count and under the same terms, the result for B2 reads 2.74 nM.
Same read-out and setting: the result for B3 reads 0.825 nM.
As to B1, the EC50 was 1.18 nM.
Still for that read-out and setting: the result for B4 reads 8.91 nM.

For the next assay, the target named is T4, His-labeled human CD3E (human, UniProt P07766 23-126).
T4 construct: also called human CD3E antigen; antigen CD3E; not shown: His label
T4 sequence (P07766 23-126): as the sequence (P07766 23-126 limits assumed) above
In words: ELISA, plate coated with His-labeled human CD3E. The protocol:
(§1) A microtiter plate was coated with 0.1 μg/mL His-labeled human or cynomolgus monkey CD3E (purchased from Acro Biosystems) (100 μL/well) overnight at 4° C. The coating solution was discarded, and the microtiter plate was blocked with 1% PBSB (200 μL/well), incubated for 1 h at 37° C. and washed with PBS containing 0.05% Tween-20. The diluted CD3 humanized antibodies AB611 and AB614 with a series of concentrations were added (100 μL/well), incubated for 1 h at 37° C. and washed with 0.05% PBST, and HRP-labeled goat anti-human IgG (H+L) (Jackson Laboratory) was added as the detection antibody and incubated for 1 h at 37° C. The wells were washed three times with 0.05% PBST, added with TMB (100 μL/well) and developed at room temperature for 5 min. 0.2 M H₂SO₄ was added to terminate the reaction, 50 μL/well. Absorption values were read by a microplate reader at double wavelengths 450 nm/620 nm. Plotting was performed by software GraphPad Prism 6 with OD 450 nm/620 nm as the Y-axis and an antibody concentration as the X-axis.
B5 returned an EC50 of 0.00833 nM.
Still for that read-out and setting: the result for B1 reads 0.00913 nM.

The next assay addresses T1, His-labeled cynomolgus monkey CD3E …. In words: ELISA, plate coated with His-labeled cynomolgus monkey CD3E. On the procedure:
as §1
On to B5, for which the half-maximal effective concentration (EC50) came out at 0.00483 nM.
Molecule B1 had an EC50 of 0.00755 nM.

A further assay has as its target T4, His-labeled human CD3E. In words: BLI (Octet), method of Example 3: His-labeled human CD3E on Ni-NTA sensors. The protocol:
(§2) The binding affinity constants of the purified murine monoclonal antibodies to antigen CD3E were determined by […] (BLI) with the ForteBio Octet RED&QK system from PALL Corporation. Concentration gradients of a multichannel parallel quantitative analysis were set to 3.125, 6.25, 12.5, 25, 50 and 100 nM, and His-labeled human CD3E (10 μg/mL) was coupled to Ni-NTA sensors.
For example, the experimental method for determining the kinetic constants and affinity equilibrium dissociation constants of the humanized antibodies was as described in Example 3.
For B1, the dissociation constant (Kd) was found to be 0.0196 nM, the koff was 1.45e-05 s⁻¹ and the kon was determined as 741000 M⁻¹ s⁻¹.
The molecule B6 had a Kd of 0.116 nM, an off-rate constant (koff) of 2.97e-05 s⁻¹ and an association rate constant (kon) of 256000 M⁻¹ s⁻¹.
For B7, in that order: 2.77 nM, 0.000698 s⁻¹ and 252000 M⁻¹ s⁻¹.
B8 returned a Kd of 0.169 nM, a koff of 4.26e-05 s⁻¹ and a kon of 253000 M⁻¹ s⁻¹.
For B9, in that order: 0.668 nM, 0.00017 s⁻¹ and 254000 M⁻¹ s⁻¹.
With B10, the dissociation constant Kd is at most 0.00264 nM, the dissociation rate constant (koff) is under 1e-07 s⁻¹ and the on-rate constant (kon) worked out at 7300 M⁻¹ s⁻¹.
For B11, the dissociation constant (Kd) was determined as 23.3 nM, the off-rate constant (koff) was 0.00119 s⁻¹ and the on-rate constant (kon) was found to be 51200 M⁻¹ s⁻¹.
For B12, in that order: 2.12 nM, 0.000369 s⁻¹ and 174000 M⁻¹ s⁻¹.
In the case of B13, the Kd turned out to be 1.8 nM, the koff came to 0.000318 s⁻¹ and the kon came out at 177000 M⁻¹ s⁻¹.
The corresponding values for B14 are 1.45 nM, 0.000391 s⁻¹ and 270000 M⁻¹ s⁻¹.
For B15, in that order: under 0.001 nM, under 1e-07 s⁻¹ and 51200 M⁻¹ s⁻¹.
The corresponding values for B16 are 182 nM, 0.00169 s⁻¹ and 9300 M⁻¹ s⁻¹.
Regarding B17, the dissociation constant (Kd) was 0.123 nM, the koff was determined as 3.41e-05 s⁻¹ and the association rate constant (kon) worked out at 276000 M⁻¹ s⁻¹.
Consider B18, for which the Kd amounted to 0.677 nM, the off-rate constant (koff) is 0.000201 s⁻¹ and the association rate constant (kon) turned out to be 296000 M⁻¹ s⁻¹.

Another assay deals with T4, His-labeled human CD3E. In words: BLI (Octet), His-labeled human CD3E on Ni-NTA sensors, antibody 3.125-100 nM. On the procedure:
as §2
Background: BLI is a label-free optical method that tracks binding on a fibre tip over time.
As to B2, binding was characterised by a dissociation constant (Kd) of 0.121 nM, the dissociation rate constant (koff) was determined as 9.73e-05 s⁻¹ and the on-rate constant (kon) turned out to be 802000 M⁻¹ s⁻¹.
Molecule B3 displayed an on-rate (kon) of 692000 M⁻¹ s⁻¹.
Consider B4, for which binding was characterised by a dissociation constant (Kd) of 0.0194 nM, the off-rate (koff) was determined as 1.04e-05 s⁻¹ and the kon worked out at 539000 M⁻¹ s⁻¹.

A word on the EC50: it is the concentration giving half of the maximal effect. In general, Kd refers to a measure of binding affinity in units of concentration. What is called koff is the first-order rate constant of dissociation. A word on the kon: it is a measure of how fast the partners come together.

Source of the values: patent publication US20240317857A1 (AMPSOURCE BIOPHARMA SHANGHAI, published 2024).
